The nature of this data set: Transferase activity of Fut7 on 3′-sialyl-N-acetyllactosamine assayed with CD39L3. The class given is biochemical. As to conditions: 0.1 μg CD39L3, 40 μM GDP-fucose, 40 μM 3′-sialyl-N-acetyllactosamine, 37° C., 30 minutes. The text has this:
The GDP-Fucose, UDP-Glucose, CMP-NeuAc, CMP, UDP and GDP used in the following experiments were obtained from Sigma-Aldrich (St Louis, Mo.). The recombinant human Fut7, ST6Gal1, CD73, CD39L3, non-specific alkaline phosphatase TNAP, recombinant Clostridium Difficile toxin B (TcdB) containing the glycosyltransferase domain and Malachite Green Phosphate Detection Kit were obtained from R&D Systems (Minneapolis, Minn.). The 3′-Sialyl-N-acetyllactosamine was obtained from V-LABS, Inc (Convington, La.). Unless otherwise specified, each glycosyltransferase reaction was performed in 50 μL of a buffer of 25 mM Tris, 150 mM NaCl, 5 mM MgCl2 and 5 mM MnCl2, at pH 7.5 in a 96-well plate at room temperature for 20 minutes. To determine kinetic parameters of each glycosyltransferase, multiple reactions with varied amounts of either glycosyltransferase or substrates were preceded simultaneously in the presence of fixed amounts of all other components, including a phosphatase. A well containing all components except glycosyltransferase served as a blank control for each example. […] The plate was then read at 620 nm with a multi-well plate reader.
The only known function of fucosyltransferase 7 (Fut7) is the biosynthesis of sialy Lewis X epitope in leukocytes and high endothelial venule cells. […] The reaction was then stopped and detected by malachite reagents. […]

B1: Fut7: recombinant human fucosyltransferase 7 from R&D Systems (protein, UniProt Q11130 1-342, looked up)
Alpha-(1,3)-fucosyltransferase …: MNNAGHGPTRRLRGLGVLAGVALLAALWLLWLLGSAPRGTPAPQPTITILVWHWPFTDQPPELPSDTCTRYGIARCHLSANRSLLASADAVVFHHRELQTRRSHLPLAQRPRGQPWVWASMESPSHTHGLSHLRGIFNWVLSYRRDSDIFVPYGRLEPHWGPSPPLPAKSRVAAWVVSNFQERQLRARLYRQLAPHLRVDVFGRANGRPLCASCLVPTVAQYRFYLSFENSQHRDYITEKFWRNALVAGTVPVVLGPPRATYEAFVPADAFVHVDDFGSARELAAFLTGMNESRYQRFFAWRDRLRVRLFTDWRERFCAICDRYPHLPRSQVYEDLEGWFQA
Take B1: the “specific activity of the enzyme” value was determined as 12.6 pmol/min/µg.
